Results from the supplement of paper PMC9112550, “Optimization of the antimicrobial peptide Bac7 by deep mutational scanning” (BMC Biology, 2022).

Tested on: Escherichia coli TOP10
Test: shrunken log2 fold change of peptide-encoding DNA abundance (4.5 h post-induction vs induction); higher = less antimicrobial activity (less host growth inhibition)
Details: time post-induction: 4.5 h; library: site-saturation at positions 5, 18, 19, 20
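Further: peptides expressed intracellularly from a pBAD plasmid library in pooled LB shake-flask culture, induced with 0.3% L-arabinose, DNA abundance read by NGS, three biological replicates, DESeq2 with apeglm shrinkage.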

## RRIRKRPPRLPRPRPRPYEMPRP
  shrunken log2 fold change: 0.138

## RRIRRRPPRLPRPRPRPINMPRP
  shrunken log2 fold change: -0.271

## RRIRHRPPRLPRPRPRPRGQPRP
  shrunken log2 fold change: -0.0142

## RRIRTRPPRLPRPRPRPTELPRP
  shrunken log2 fold change: -0.0329

## RRIRLRPPRLPRPRPRPCEDPRP
  shrunken log2 fold change: 0.00976

## RRIRDRPPRLPRPRPRPGEGPRP
  shrunken log2 fold change: 1.41

## RRIRHRPPRLPRPRPRPYVHPRP
  shrunken log2 fold change: -0.312

## RRIRCRPPRLPRPRPRPKCGPRP
  shrunken log2 fold change: 0.0778

## RRIRPRPPRLPRPRPRPDVHPRP
  shrunken log2 fold change: -0.0196

## RRIRFRPPRLPRPRPRPPISPRP
  shrunken log2 fold change: -0.239

## RRIRYRPPRLPRPRPRPNHKPRP
  shrunken log2 fold change: -1.3

## RRIRLRPPRLPRPRPRPQQQPRP
  shrunken log2 fold change: 0.0294

## RRIRGRPPRLPRPRPRPPFYPRP
  shrunken log2 fold change: 0.397

## RRIRVRPPRLPRPRPRPWEWPRP
  shrunken log2 fold change: 0.0039

## RRIRHRPPRLPRPRPRPAVHPRP
  shrunken log2 fold change: 0.0645

## RRIRRRPPRLPRPRPRPCKQPRP
  shrunken log2 fold change: -0.0474

## RRIRTRPPRLPRPRPRPANYPRP
  shrunken log2 fold change: -0.145

## RRIRFRPPRLPRPRPRPMQWPRP
  shrunken log2 fold change: -0.113

## RRIRRRPPRLPRPRPRPHITPRP
  shrunken log2 fold change: -0.385

## RRIRCRPPRLPRPRPRPPSFPRP
  shrunken log2 fold change: 0.175

## RRIRLRPPRLPRPRPRPIGVPRP
  shrunken log2 fold change: -0.0539

## RRIRTRPPRLPRPRPRPAAYPRP
  shrunken log2 fold change: -0.000154

## RRIRKRPPRLPRPRPRPLWDPRP
  shrunken log2 fold change: 0.609

## RRIRQRPPRLPRPRPRPRLCPRP
  shrunken log2 fold change: 0.423

## RRIRDRPPRLPRPRPRPLSAPRP
  shrunken log2 fold change: 0.379

## RRIRWRPPRLPRPRPRPEEEPRP
  shrunken log2 fold change: 0.00738

## RRIRTRPPRLPRPRPRPIMWPRP
  shrunken log2 fold change: 0.0465

## RRIRSRPPRLPRPRPRPFKLPRP
  shrunken log2 fold change: -0.71

## RRIRSRPPRLPRPRPRPRPMPRP
  shrunken log2 fold change: 0.498

## RRIRSRPPRLPRPRPRPKNMPRP
  shrunken log2 fold change: -0.324

## RRIRTRPPRLPRPRPRPPYYPRP
  shrunken log2 fold change: -0.535

## RRIRKRPPRLPRPRPRPRSHPRP
  shrunken log2 fold change: 0.38

## RRIRARPPRLPRPRPRPLTNPRP
  shrunken log2 fold change: 0.303

## RRIRGRPPRLPRPRPRPDRMPRP
  shrunken log2 fold change: -0.107

## RRIRIRPPRLPRPRPRPYVKPRP
  shrunken log2 fold change: -0.881

## RRIRRRPPRLPRPRPRPDFAPRP
  shrunken log2 fold change: 0.39

## RRIRFRPPRLPRPRPRPCTRPRP
  shrunken log2 fold change: 0.0381

## RRIRARPPRLPRPRPRPVRLPRP
  shrunken log2 fold change: 0.371

## RRIRRRPPRLPRPRPRPGCNPRP
  shrunken log2 fold change: 0.327

## RRIRHRPPRLPRPRPRPMQEPRP
  shrunken log2 fold change: -0.01

## RRIRPRPPRLPRPRPRPHNGPRP
  shrunken log2 fold change: -0.0321

## RRIRMRPPRLPRPRPRPTDFPRP
  shrunken log2 fold change: -0.0135

## RRIRCRPPRLPRPRPRPGYRPRP
  shrunken log2 fold change: -0.682

## RRIRMRPPRLPRPRPRPHPPPRP
  shrunken log2 fold change: 1.26

## RRIRGRPPRLPRPRPRPSQHPRP
  shrunken log2 fold change: 0.0187

## RRIRDRPPRLPRPRPRPPCRPRP
  shrunken log2 fold change: -0.0227

## RRIRVRPPRLPRPRPRPHKIPRP
  shrunken log2 fold change: -0.53

## RRIRNRPPRLPRPRPRPYMSPRP
  shrunken log2 fold change: -0.019

## RRIRARPPRLPRPRPRPSLQPRP
  shrunken log2 fold change: 0.193

## RRIRYRPPRLPRPRPRPDFQPRP
  shrunken log2 fold change: -0.409
